Reference: publication PMC11763261

T1: CTB5-MBP (OsHox14, HD-Zip I) (Oryza sativa (japonica; KMXBG or Towada …, UniProt Q7XI85 1-240)
T1 sequence: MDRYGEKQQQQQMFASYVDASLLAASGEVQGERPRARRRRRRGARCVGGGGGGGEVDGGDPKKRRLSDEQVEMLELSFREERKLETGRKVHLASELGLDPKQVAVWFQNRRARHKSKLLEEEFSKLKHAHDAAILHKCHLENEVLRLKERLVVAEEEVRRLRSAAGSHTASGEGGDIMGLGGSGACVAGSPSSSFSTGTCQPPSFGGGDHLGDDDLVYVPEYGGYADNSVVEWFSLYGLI


Target: T1, CTB5-MBP (OsHox14, HD-Zip I)
Assay: EMSA

| Binder | binding result |
| --- | --- |
| OsGA3ox1 promoter probe WT (dsDNA) DNA 1: ATAGGAAAAAAAATTAATAATTACTTAAATTTTTTGAA DNA 2: TTCAAAAAATTTAAGTAATTATTAATTTTTTTTCCTAT | binds |
| OsGA2ox6 promoter probe mutant (dsDNA) DNA 1: CGGGGATGTGCAGTTCCCCCCATTTTGTATAAGATT DNA 2: AATCTTATACAAAATGGGGGGAACTGCACATCCCCG | no binding |
| PYL9 promoter probe WT (AH1 motif) (dsDNA) DNA 1: AAAATATATTCAATTATTGATTTGAAACTA DNA 2: TAGTTTCAAATCAATAATTGAATATATTTT | binds |
| OsGA2ox6 promoter probe WT (dsDNA) DNA 1: CGGGGATGTGCAGTTTAATTAATTTTGTATAAGATT DNA 2: AATCTTATACAAAATTAATTAAACTGCACATCCCCG | binds |
| OsGA3ox1 promoter probe mutant (dsDNA) DNA 1: ATAGGAAAAAAAATTGGGGGGGGCTTAAATTTTTTGAA DNA 2: TTCAAAAAATTTAAGCCCCCCCCAATTTTTTTTCCTAT | no binding |
